{
  "source": "patent US20230348573A1",
  "about": "(KEIO UNIVERSITY, published 2023)",
  "key": {"[1]": {"molecular_target": "T1, RBD derived from SARS-CoV-2 (Wuhan strain) (SARS-CoV-2 (Wuhan strain), UniProt P0DTC2 319-541)", "T1 construct": "domain: RBD", "test": "RBD beads, antibody 4 µg/mL, then labelled ACE2, flow cytometry"}, "[2]": {"molecular_target": "T1, RBD derived from SARS-CoV-2 (Wuhan …)", "test": "RBD beads, antibody 1 µg/mL, then labelled ACE2, flow cytometry"}, "[3]": {"molecular_target": "T1, RBD derived from SARS-CoV-2 (Wuhan …)", "test": "RBD beads, antibody 0.25 µg/mL, then labelled ACE2, flow cytometry"}, "[4]": {"molecular_target": "T2, full-length spike protein of SARS-CoV-2 (Wuhan strain) (SARS-CoV-2 (Wuhan strain), UniProt P0DTC2 14-1273)", "T2 construct": "whole, on cells; Expressed in 293T cells", "test": "ACE2 competition, spike on 293T cells, antibody 4 µg/mL"}, "[5]": {"molecular_target": "T1, RBD derived from SARS-CoV-2 (Wuhan …)", "test": "BLI (Octet), RBD of the Wuhan strain"}, "[6]": {"molecular_target": "T2, full-length spike protein of SARS-CoV-2 …", "test": "ACE2 competition, 293T cells, antibody 4 µg/mL"}, "[7]": {"molecular_target": "spike protein of SARS-CoV-2 (Wuhan strain) on pseudovirus (SARS-CoV-2 (Wuhan strain), UniProt P0DTC2 14-1254)", "test": "cell-based or functional assay"}},
  "data": [
    {"binder": "Ab326 (antibody, V domains shown) VH: EVQLVESGGGVVQPGRSLRLSCAASGFTFSHYPMHWVRQAPGRGLEWVAVISYDGSNQHYVDSVKGRFTISRDNSKNTLYLQMNSLRAEDTAVYFCASLITMIRGVPDYWGQGTLVTVSS VL: DIQMTQSPSSLSASVGDRVTITCRASQSISNYLNWYQQKPGKAPNLLIFAASSLQSGVPSRFSGSGSGTEFTLTISSLQPEDFAAYYCLQTYSTPRTFGQGTRLEIK", "values": [
      {"measurement": "fluorescence of ACE2 protein", "setting": "[1]", "value": 38.4},
      {"measurement": "fluorescence of ACE2 protein", "setting": "[2]", "value": 39.9},
      {"measurement": "fluorescence of ACE2 protein", "setting": "[3]", "value": 516},
      {"measurement": "binding amount (%) of ACE2 protein", "setting": "[4]", "value": 0.2, "unit": "%"},
      {"measurement": "Kd", "setting": "[5]", "value": 0.0514, "unit": "nM"},
      {"measurement": "ACE2 binding (no antibody = 100)", "setting": "[6]", "value": 0.2},
      {"measurement": "IC50 of pseudovirus infection (luciferase)", "setting": "[7]", "value": 0.031, "unit": "mg/L"}
    ]},
    {"binder": "Ab354 (antibody, V domains shown) VH: QVQLVQSGAEVKKPGASVTVSCKASGFLFTGYYMHWVRQAPGQGLEWMGWINPNSGASNYTRKFQGRVTMTRDTSISATYMKLSRLTSDDTAVYYCARDLAFSMVRGALDYWGQGTLVTVSS VL: QLVLTQPPSASGSPGQSVTISCTGTSSDVGGYNYVSWYQHHPGKAPKLMIYEVSKRPSGVPDRFSGSKSGNTASLTVSGLQAEDEADYYCNSYAGNNNWVFGTGTKVTVL", "values": [
      {"measurement": "fluorescence of ACE2 protein", "setting": "[1]", "value": 42.9},
      {"measurement": "fluorescence of ACE2 protein", "setting": "[2]", "value": 64.8},
      {"measurement": "fluorescence of ACE2 protein", "setting": "[3]", "value": 409},
      {"measurement": "binding amount (%) of ACE2 protein", "setting": "[4]", "value": 0.3, "unit": "%"},
      {"measurement": "Kd", "setting": "[5]", "value": 0.0726, "unit": "nM"},
      {"measurement": "ACE2 binding (no antibody = 100)", "setting": "[6]", "value": 0.3},
      {"measurement": "IC50 of pseudovirus infection (luciferase)", "setting": "[7]", "value": 0.0559, "unit": "mg/L"}
    ]}
  ]
}
